# Test results taken from IntAct's records for PubMed 12058072.
# B1: Serine/threonine-protein kinase GIN4 (Saccharomyces cerevisiae), Q12263 (parent)
# chain: MAINGNSIPAIKDNTIGPWKLGETLGLGSTGKVQLARNGSTGQEAAVKVISKAVFNTGNVSGTSIVGSTTPDALPYGIEREIIIMKLLNHPNVLRLYDVWETNTDLYLVLEYAEKGELFNLLVERGPLPEHEAIRFFRQIIIGVSYCHALGIVHRDLKPENLLLDHKYNIKIADFGMAALETEGKLLETSCGSPHYAAPEIVSGIPYQGFASDVWSCGVILFALLTGRLPFDEEDGNIRTLLLKVQKGEFEMPSDDEISREAQDLIRKILTVDPERRIKTRDILKHPLLQKYPSIRDSKSIRGLPREDTYLTPLSESNSSIDATILQNLVILWHGRDPEGIKEKLREPGANAEKTLYALLYRFKCDTQKELIKQQQVKKRQSISSVSVSPSKKVSTTPQRRRNRESLISVTSSRKKPISFNKFTASSASSSNLTTPGSSKRLSKNFSSKKKLSTIVNQSSPTPASRNKRASVINVEKNQKRASIFSTTKKNKRSSRSIKRMSLIPSMKRESVTTKLMSTYAKLAEDDDWEYIEKETKRTSSNFATLIDEIFEYEKYEQIRKEKEELERKVREAKAREELERRRRKQEEKERARKLLEKEDLKRKQEELKKQIEIDISDLEQELSKHKEEKLDGNIRSISAPMENEEKNINHLEVDIDNILRRRNFSLQTRPVSRLDPGIMFSSPTEEVSPVEPKRTENERLTTEKKILETIRRSKFLGSSFNIDKELKLSKMEYPSIIAPQRLSEERVVSDSNDGYESLILPKDGNGVSQLKDSTATTAPVSDGRLRKISEIRVPQFTRKSRHFSESNKRLSVLSMYSTKESFTNLVDILKNGNLDVNNQQSQRIPTPRSADDSEFLFETVNEEAEYTGNSSNDERLYDVGDSTIKDKSALKLNFADRFNGSNEAKQTDNLHLPILPPLNGDNELRKQNSQEGDQAHPKIKSMIPESGSSSHTEKEEENEEKEEKKPEQHKQEEDQEKREKVVDDMEPPLNKSVQKIREKNAGSQAKDHSKDHLKEHKQDKNTAIGNGSFFRKFSKSSDKTMELYAKISAKQLFNGLEKLLRGWTQYGLKNIKSHPNNLTLTGKLSSDNIFSLRSTLFEVNIYPRGKMSVVQFKKVSGSFKAVKKLVNEVENVLNKEGVLQK
# partner: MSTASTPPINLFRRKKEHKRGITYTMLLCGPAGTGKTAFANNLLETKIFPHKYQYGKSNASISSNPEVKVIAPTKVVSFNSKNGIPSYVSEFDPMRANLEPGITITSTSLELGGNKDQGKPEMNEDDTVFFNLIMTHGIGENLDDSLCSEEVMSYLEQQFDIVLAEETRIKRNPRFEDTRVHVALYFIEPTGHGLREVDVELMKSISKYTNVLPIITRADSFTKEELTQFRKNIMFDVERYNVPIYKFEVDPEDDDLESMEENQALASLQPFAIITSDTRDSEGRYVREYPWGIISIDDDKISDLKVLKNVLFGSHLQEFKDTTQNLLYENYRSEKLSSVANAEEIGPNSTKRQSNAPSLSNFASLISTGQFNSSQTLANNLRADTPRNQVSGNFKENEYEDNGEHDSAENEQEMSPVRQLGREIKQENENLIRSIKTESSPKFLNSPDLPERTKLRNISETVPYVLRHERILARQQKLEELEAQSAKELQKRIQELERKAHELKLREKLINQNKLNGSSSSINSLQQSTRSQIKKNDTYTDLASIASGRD
# Variants of: B1
# Conditions: with shs1_yeast SHS1, Q07657
row,effect of a mutation on the interaction,Variant
1,disrupting interaction,K48A
